Measured values taken from the DeepSol protein solubility set.

test: soluble on expression in E. coli; label from the status in PepcDB or PDB records

Sequence	soluble on expression in E. coli
MAHHHHHHMSVVISTSLGSLLINLRFVDCPKASFNFLALCASSYYDGCRFHRLVPETFVLTGDPTGTGKGGESVFVHHQDIKQRYFEDEGMGNALHDRRGVVSMAHKGNKPDTNASQFFILFKPCPSLDSKHTAFGVVDFGWNDGESERTLKRVEELEADGSYNVLDVEARILSTTVLYNPFAEGHIKLNV	not soluble
MAHHHHHHMSWRTRVVRCPLQEPHNPFDMGRVMQRFWSPFCKGVKGPDLHTYGFGETFSGMRTHDSDFTCQVNGQVGGAKLVEDFFITLLCGFDFEHVKVERHLTTSGAADPCQFQGTIVLAHTRPFLGWCPQPVTHSLEKCPSPSECDATKVSTNNINELGNTTATASRCLVQTGGNTEAPVPSLILNVPFTARLEGNVGRISHMILRSPAIGVIAAHQCCPAEVGSCLQNPEALQALVTLRRANVRPEMITDRTLVGITAKKAAWCSALGIL	not soluble
MAHHHHHHMTAPITGPMLLGAASVDVLRSMLTLDPFQCLVAQRLCEELSCQRFPKVTLLIFKSMPDPRLLQLRSSVGEEVTVTVSRLNDLRCKFTLGDKANYEHLYNMRTPAKPRTVCTFDIVLPTSRLTGLSRCIDHLIAAAERMVMPRITVEALCCTEQDERRKIVREEKDHWDFLFHGLRVGSFITVLRRLPSITAMHAPPIPHDYTFSAALSNPGFVLPSHYCGRLATVPTGAKGVSTPFIAIAEPAIPTGAKVSIRCQLIRGNQGQILGGGYYFGVCTPSFHWKHKDLNVHTGEVWALHDMDDSPWRLRHLRPDATFPVAAEPRCIIVSGDIIRLYIDRTARVMHAFRTPVNGDEIPLGLHL	not soluble
MAHHHHHHMTITLDSFNEQKVHNNQNKRKYNCRLNFKRFTKRRNNYNEDNRDSKINIKTALIKNEVISDDNDEFIDSNLMRTCHRFRLYKHSSNKIDIYYPYDKKKLDKYDYERDQTFCSLTDIEDVVNNGDDKSSKFFYYKNKSLNDYKSCFEKKNKKTKWFRLRKKKKKDHAMDESLKYLNESVCSNYKEANKNNKLDNSSKYSKNCVINTTVNGIRGFSAWIF	not soluble
MAHHHHHHMTKSYLNQDQQLRAQQVYTTHKHLKELSMATKEALTYHDKYLAAMEHVMSCLLNNSDALEDARKHLTQEAAVDIQPTFPTAGRLAAAYSNWRVSAELHMMRTELEFLKEVSTTGHEAVKKTKNAVHGLEKVAKKCAHVNSPEFEAKISSKSGKALEKLLHEQRETNTMMMSIENAIKKDMMSLATSWSAKLVTRGDALYTAFRSLGCRTVACFPTTDPTLSQGMPPPAAGYVLSQPSSASTSVPYSGGTAVGHGTPSTLPAAQSVECAAVPLSSAGEGAAAGVKLEFNLNEGKPVSR	soluble
MAHHHHHHMTLETTPAPTFSSKKELYDWLVKQVEALVHDMSKRFTPQANLVIGLSNTAALCFYELNRFCNPEAALEKLRVNWFGFYLFQAPGLLALGPFQGRPACTEIRVGKGVCGTVAESGESMVVQSVHEFPGHIACDSASKSEIAVPVLIENGSVVAVIDVDSTELGHFSEEDREGLERMAAVLAQHLDFPMARALAVNPALGLPGYSALAGGEKALQPHGDAEAVPQATPVTTTTTTPATVTAVTRIPFFKVEVKQPDVTTKCVGGWQFTRTNLDRIMTQDETKQLQDSLGISALPEIAFQGKTLSVSPESDREHPWLHFSVEALMCSAAEYYQTEEFKTLVNPQLRIPVSAGWESFHFEKYDPKVDWAWRNNFCGLVPDRGRLVERPRDAADAPGINWDILKDTSLLILFYGDFDMMEDDLRDHGMVTSSVKYRVMSSAFFVLFRHFVRVDNHEIWMREVRVFHEFGKTRTPSGVPHIVFLEQLRHVRIAEPVEGVDWKSMSPDAISAKATVLLSREWMLEKVATA	not soluble
MAHHHHHHMTTAGQSDAFTRVSLHSVTALGKCPAPFSDPIAVKVVLEVFGCPPKHSIDVKFTWKPIWDFPVDQVLDEFEVGPLATVGKHELVLHSDPPDVAKIPDPTGPTALTIAFTYRGKQFLHIGYNAVVLCEGEMPDVFEDAAMLSRQLTQCFKKETTIAWDEDHEDVEEKTVINGKDNDISDVKEKDHNGHAAYDDEAKVPEGVSPTKKKARCEGSLSQ	soluble
MAHHHHHHMVLHIYHAAVGEKEFQFSTNINKLTQETYELDVNEAIEEVSSTILEQLTGEDALCCECKAAPATRLIHHTMLFAETFPPRVEDLPQPVCNSANCEAVAKSRYLMDMEDATTAQGMPSPNGCFHCHKGARGAATVPLQRCSRCKVAKYCSVECQKADWKVHKQVCAPG	not soluble
MAHHHHHHMVLLPFPPSFYVTTGTTIPFISSPPVAQSGNIYASNESKRLRVDNFFMGFQYSFVADGKLGRGFVFESIEPITTTTASGNNNNNNNNNNNNNNSSEKKSGRGGEERISCRSFALNRGLTGFGVPDEFVRHAESSLVRGVKVWRYTGYSRSGVGPLQEVDYFIRNGTFHAVPWRVQIRRRQTALKELTGSPMTLPNWRYFGGLFFDEVAVPEGPYEDKLERLMQDTTVTLDFYNFVPAEPHPSVFSVPDNCKEVSARFTGNDVDISLAQRFLVDLSLYTPVGREMLREELNSA	not soluble
MAHHHHHHMVTLNSTKPQVVIEASGVPTIQTSSITSPVVLTTPLGKSMYSSYSYSNPVSSSYSSSHHNECEYNWERVSTKPSQSTQHGEYMKTFEVPTGLYYETLPLKRNTNNIFEVTPSKEELEKINYNPRIEVYSTCNFVIIMMDLPGVSKENLKVELENGVLKIFGHKYKVPLEELQTEHEYHTKIIERVGEYYFCKMFQMPPVFSDGQSISCTLRDGELTFKMLASDLRAQKRVVEVQS	not soluble
MAHHHHHHMYSTTNDKSENEDLNDVIEININNIANKLANILYITNVGMKENCELKNNLHFSKFLNDMRSYCVNLIQSINNLNSNFYNLTCLPVHSIPRNPYTNILDINVITNNISVDDNADKIKEKQTLLQSFHNKYDKNKTTFHQSIKHIETFNDQLFSALNNLDHIKMSIKYQDQESSTYGNVVSERLKNKQKDHEHLELYIARVHYGLF	not soluble
MAHPQEIREKLRRLYVSGEQTLETAALMCEIPQTTARAWKRADKEKGDDWDKMRAAYTLAGGGIEDLSRAMLAGFMVQYNSTMTMLQDSSTEDLPPSDRAKLLASLADAFTKTVSANARVMPETSKLATALELIEFLMAFVQEKHPKHLPAFVEVLEPFGVEVEKKFG	not soluble
MAHSQVGIQLISESTEKTLAELIALCAEHNIIHNEKSPLALVQTDDRLELRKLDEPKLGAVYVDFVGGTMAHRRKFGGGRGEAVAKAVGIKGSALPTVIDATAGLGRDAFVLAAIGCQVRLVERHPVVFLLLQDGLNRAYQDEEIGEMLQQNLHLLNVQHINELDPNSDYADVVYLDPMYPHKQKSALVKKEMRVFQHLVGADLDADELLLPALQLAKKRVVVKRPDYAEFLCGKQPHFSHETKNHRFDIYMGASQC	soluble
MAHTSRHNEFSIGASASLWECMLNQWLGRLYQNQDAHTGLQFEARIAQRQSLVKQLHERQLDLLITTEAPKMDEFSSQLLGYFTLALYTSAPSKLKGDLNYLRLEWGPDFQQHEAGLIGADEVPILTTSSAELAQQQIAMLNGCTWLPVSWARKKGGLHTVVDSTTLSRPLYAIWLQNSDKNALIRDLLKINVLDEVY	not soluble
MAIEIKLETPRQEAVLRLIDLSNAYMASLYPAESNHLVDIGALEKDNVSFFVARHDGRVVGCGALVEAGDGTAEVKRMFVDPEARGLRIGKLIMDTLVARGTELGLSAIRLETGISQPEAIGLYRKEGFVEIEAFAPYKPDPLSLFMERAL	not soluble
MAIGSKIIKPGGSDPDDFEKSIAQALVELEANSDLKPYLRDLHITRAREIEFGSKKAVIIYVPIPQQKVFQKIQIILVRELEKKFSGKHVVVIAERKILPKPTRKARNPLKQKRPRSRTLTAVYDAILEDLVFPAEIVGKRIRVKLDGSQLVKVHLDKNQQTTIEHKVDTFTSVYKKLTGRDVTFEFPDNYLNV	not soluble
MAIIEEIFEDEEDQITKVDSLKKEGNNFFANGEFEKANEKYQEAIASCPPTSTEVQSILLSNSAAALIKLRKWESAVEAASKSIEIGATNEKALERRAFAYSNMSEKYENSIEDYKQLQESLPKRRVELDRKIAEINEKINNRNEAMKADVMEKLKGFGNFCLSPFGLSTDSFEMVPNGNGGFSVQMKGATNKQEGASQEKKEEENA	soluble
